Values quoted from earlier work, collected in patent publication US7435406B2, “Methods for conducting metabolic analyses” (Target Discovery, Inc., priority 1999, dated 2008).

B1: Bovine ribonuclease A: protein standard from Sigma-Aldrich, Cat # R 5503 (protein, UniProt P61823 27-150, looked up)
Ribonuclease pancreatic: KETAAAKFERQHMDSSTSAASSSNYCNQMMKSRNLTKDRCKPVNTFVHESLADVQAVCSQKNVACKNGQTNCYQSYSTMSITDCRETGSSKYPNCAYKTTQANKHIIVACEGNPYVPVHFDASV

Conditions: protein standards obtained from Sigma-Aldrich

Molecule | pl
Carbonic anhydrase II: protein standard from Sigma-Aldrich, Cat # T 6522 | 4.5
B1 | 9.6
